How the values were obtained:
Experiment in all cases: cell_activity
[1] = system: ZFN SBS#46696 (synthetic)
[2] = system: ZFN SBS#46697 (synthetic)
[3] = system: ZFN SBS#20505 (synthetic)
[4] = system: ZFN SBS#46693 (synthetic)
[5] = system: ZFN SBS#46705 (synthetic)
[6] = system: ZFN SBS#8266 (synthetic)
[7] = system: ZFN SBS#46700 (synthetic)
[8] = system: ZFN SBS#46698 (synthetic)
[9] = pair 46700:46705 at CCR2, GFP 0.05

For “AAACTGCAAAAA (double strand) [CCR2 right half-site]”, the activity ([1]; pair 46693:46696 at CCR2, background level, no SELEX evidence of binding the CCR2 adenine) was 0.01 % indel, the activity ([2]; pair 46693:46697 at CCR2, no SELEX evidence of binding the CCR2 adenine) was 0.07 % indel and the activity ([3]; pair 8266:20505 at CCR2, K562) was 5.23 % indel.

In the case of “AAACTGCAAAAG (double strand) [CCR5 right half-site (20505)]”, the activity ([3]; pair 8266:20505, K562) was 29.9 % indel.

In the case of “AGGATGAGGATGACCAGCATGTTGTTGC (double strand) [CCR5 left target]”, the activity ([4]; pair 46693:46697, K562, GFP 0.01) was 10 % indel.

In the case of “ATAAACTGCAAAAGGCTGAAGAGCATGA (double strand) [CCR5 right target]”, the activity ([1]; pair 46693:46696, K562, printed 417, 632 of 15162 reads) was 4.17 % indel and the activity ([2]; pair 46693:46697, K562) was 10 % indel.

“CAAAAAGCTGAAGTGCTT (double strand) [CCR2 shifted right half-site]” gave an activity [5, 9] of 0.08 % indel.

In the case of “GATGAGGATGAC (double strand) [CCR5 left half-site (8266)]”, the activity ([6]; pair 8266:20505, K562) was 29.9 % indel.

With “GGTCGTCCTCATCTTAAT (double strand) [CCR2 shifted left half-site]” the activity [7, 9] was 0.08 % indel and the activity ([8]; pair 46698:46705 at CCR2) was 0 % indel.

“GTCGTCCTCATC (double strand) [CCR2 left half-site]” was tested, and the activity ([6]; pair 8266:20505 at CCR2, K562) was 5.23 % indel and the activity ([4]; pair 46693:46697 at CCR2, p 0.0013) was 0.07 % indel.

With “TGCAAAAGGCTGAAGAGCATGACTGACA (double strand) [CCR5 shifted right 6F]” the activity ([5]; pair 46700:46705, K562, GFP 0.03) was 27.4 % indel.

“TTATCAGGATGAGGATGACCAGCATGTT (double strand) [CCR5 shifted left 4F]” gave an activity ([8]; pair 46698:46705, K562) of 23.8 % indel.

For “TTATCAGGATGAGGATGACCAGCATGTT (double strand) [CCR5 shifted left 6F]”, the activity ([7]; pair 46700:46705, K562) was 27.4 % indel.

From patent US20180002379
